We go through 167 variants from the MegaScale stability set (Tsuboyama et al. 2023).

B1: EHEE_rd2_0601 (parent)
chain: TYTYKLTDEEASRRAEDEWRNRGYDVRVRNNNGTWEVEVR
B2: 2M8U (parent)
chain: TKAQVIEAFKVFDRDGNGYVTVDYLRKVLNELGDMMPADEIEEMIYEADPQNSGYVQYETFVGMLFL

One data set covers variants of B1. The experiment in a line: folding stability dG (cDNA display proteolysis); higher = more stable. The settings on record: PBS, room temperature.
Consider Y2K, for which the “folding stability dG” value amounted to 1.33 kcal/mol.
The same measure, in the same setting: then Y2V, with 1.63 kcal/mol; and Y2M, with 1.46 kcal/mol; and Y2R, with 1.58 kcal/mol.
Still for that read-out and setting: then Y2G, with 0.413 kcal/mol; and Y2I, with 1.69 kcal/mol.
On the same count and under the same terms, then Y2E, with 0.682 kcal/mol.
As to Y2Q, the “folding stability dG” value is 1.04 kcal/mol.
Take Y2P: the “folding stability dG” value was 0.083 kcal/mol.
Same read-out and setting: then Y2D, with 0.375 kcal/mol; and Y2N, with 0.674 kcal/mol; and Y2L, with 1.41 kcal/mol.
Still for that read-out and setting: to Y2H belongs 1.37 kcal/mol.
As to Y2S, the “folding stability dG” value is 0.609 kcal/mol.
Same read-out and setting: then Y2W, with 2.04 kcal/mol; and Y2A, with 0.941 kcal/mol; and Y2F, with 1.76 kcal/mol.
Consider Y2T, for which the “folding stability dG” value was 1.38 kcal/mol.
Still for that read-out and setting: to T1W belongs 2.65 kcal/mol.
On the same count and under the same terms, then T1Y, with 1.81 kcal/mol; and T1P, with 1.15 kcal/mol; and T1S, with 1.62 kcal/mol.
As for T1N, the “folding stability dG” value is 1.19 kcal/mol.
Still for that read-out and setting: then T1I, with 1.73 kcal/mol; and T1G, with 1.37 kcal/mol; and T1K, with 1.28 kcal/mol.
For T1E, the “folding stability dG” value amounted to 0.815 kcal/mol.
Same read-out and setting: to T1A belongs 1.41 kcal/mol; to T1V, 1.86 kcal/mol; to T1Q, 1.03 kcal/mol.
The same measure, in the same setting: to T1L belongs 1.37 kcal/mol; to T1H, 1.44 kcal/mol.
Same read-out and setting: then T1D, with 0.915 kcal/mol; and T1F, with 1.73 kcal/mol.
On to T1M, for which the “folding stability dG” value stood at 1.33 kcal/mol.
On the same count and under the same terms, then T1R, with 1.35 kcal/mol; and T3Y, with 1.36 kcal/mol.
Take T3P: the “folding stability dG” value is -0.035 kcal/mol.
For T3I, the “folding stability dG” value is 1.92 kcal/mol.
Still for that read-out and setting: to T3E belongs 0.117 kcal/mol.
On the same count and under the same terms, to T3G belongs 0.036 kcal/mol; to T3W, 1.24 kcal/mol.
Same read-out and setting: then T3R, with 1.12 kcal/mol; and T3C, with 2.36 kcal/mol; and T3A, with 0.556 kcal/mol.
Take T3N: the “folding stability dG” value turned out to be 0.532 kcal/mol.
Regarding T3S, the “folding stability dG” value amounted to 0.898 kcal/mol.
The same measure, in the same setting: to T3M belongs 1.18 kcal/mol; to T3D, 0.044 kcal/mol; to T3Q, 0.604 kcal/mol.
On the same count and under the same terms, to T3K belongs 1.13 kcal/mol.
Turning to T3F, the “folding stability dG” value is 1.37 kcal/mol.
The same measure, in the same setting: to T3H belongs 0.873 kcal/mol; to T3L, 1.46 kcal/mol; to T3V, 1.82 kcal/mol.
Still for that read-out and setting: to Y4G belongs -0.985 kcal/mol.
Regarding Y4C, the “folding stability dG” value stood at 1.16 kcal/mol.
Same read-out and setting: then Y4E, with 0.419 kcal/mol; and Y4H, with 0.191 kcal/mol; and Y4I, with 1.58 kcal/mol.
Still for that read-out and setting: then Y4D, with -0.109 kcal/mol; and Y4A, with -0.411 kcal/mol; and Y4F, with 1.94 kcal/mol.

Variants of B2 are the subject of a further data set. The data set is described as above. The settings on record: PBS, room temperature.
Turning to G18F, the “folding stability dG” value was determined as 2.65 kcal/mol.
Still for that read-out and setting: to G18M belongs 2.62 kcal/mol; to G18L, 2.92 kcal/mol; to G18D, 2.28 kcal/mol.
Same read-out and setting: then G18P, with 2.71 kcal/mol; and G18E, with 2.38 kcal/mol; and V11P, with 3.14 kcal/mol.
Same read-out and setting: then V11F, with 3.01 kcal/mol; and E43H, with 4.05 kcal/mol; and E43Y, with 3.69 kcal/mol.
Turning to Y55F, the “folding stability dG” value turned out to be 3.35 kcal/mol.
On the same count and under the same terms, to Y55T belongs 3.11 kcal/mol.
On to Y55R, for which the “folding stability dG” value came to 3.37 kcal/mol.
Same read-out and setting: then Y55I, with 3.37 kcal/mol.
The same measure, in the same setting: to Y55M belongs 3.51 kcal/mol; to T60H, 3.66 kcal/mol.
Take T60E: the “folding stability dG” value was found to be 3.61 kcal/mol.
For the variant T60D, the “folding stability dG” value was 3.42 kcal/mol.
On the same count and under the same terms, to Y24C belongs 4.02 kcal/mol; to Y24S, 4.27 kcal/mol.
Still for that read-out and setting: then M64Y, with 3.25 kcal/mol; and N30I, with 3.36 kcal/mol.
As for N30K, the “folding stability dG” value was 3.59 kcal/mol.
Same read-out and setting: then T21I, with 2.89 kcal/mol; and T21D, with 3.16 kcal/mol.
Still for that read-out and setting: then T21C, with 3.42 kcal/mol.
On the same count and under the same terms, then E47Q, with 3.96 kcal/mol; and E47M, with 3.87 kcal/mol; and E47I, with 3.92 kcal/mol.
For E47Y, the “folding stability dG” value came out at 3.51 kcal/mol.
On the same count and under the same terms, then E47R, with 4.15 kcal/mol.
Still for that read-out and setting: to E59N belongs 2.91 kcal/mol; to E59Y, 3.82 kcal/mol.
As to E59C, the “folding stability dG” value came to 3.25 kcal/mol.
In the case of E59V, the “folding stability dG” value amounted to 3.68 kcal/mol.
Same read-out and setting: to E59D belongs 2.99 kcal/mol.
With E59Q, the “folding stability dG” value amounted to 3.11 kcal/mol.
The same measure, in the same setting: then E59H, with 3.24 kcal/mol; and L65D, with 1.97 kcal/mol.
With L65K, the “folding stability dG” value stood at 1.94 kcal/mol.
Still for that read-out and setting: to L65P belongs 1.55 kcal/mol; to L65C, 2.6 kcal/mol.
In the case of L65W, the “folding stability dG” value was determined as 3.25 kcal/mol.
For the variant A8C, the “folding stability dG” value was determined as 3.46 kcal/mol.
Same read-out and setting: to A8L belongs 3.56 kcal/mol.
Same read-out and setting: to A8I belongs 3.5 kcal/mol; to M44W, 3.21 kcal/mol.
The same measure, in the same setting: to M44V belongs 3.07 kcal/mol; to M44D, 2.25 kcal/mol; to Y58M, 2.46 kcal/mol.
With Y58C, the “folding stability dG” value was 2.07 kcal/mol.
With Y58H, the “folding stability dG” value stood at 1.99 kcal/mol.
On to Y58I, for which the “folding stability dG” value is 3.25 kcal/mol.
On the same count and under the same terms, to Y58R belongs 1.77 kcal/mol; to Y58D, 1.3 kcal/mol; to Y58S, 2.04 kcal/mol.
Take Y58L: the “folding stability dG” value stood at 2.51 kcal/mol.
Still for that read-out and setting: then V56R, with 2.24 kcal/mol.
On the same count and under the same terms, then V56L, with 3.07 kcal/mol.
The same measure, in the same setting: then V56K, with 1.78 kcal/mol; and V56E, with 2.33 kcal/mol.
Take V62E: the “folding stability dG” value was determined as 1.66 kcal/mol.
On the same count and under the same terms, to V62G belongs 1.93 kcal/mol; to V62N, 1.68 kcal/mol.
In the case of F9K, the “folding stability dG” value was 2.18 kcal/mol.
On the same count and under the same terms, to F9C belongs 3.12 kcal/mol; to A3W, 2.9 kcal/mol.
As for A3M, the “folding stability dG” value amounted to 3.24 kcal/mol.
Still for that read-out and setting: then A3F, with 3 kcal/mol; and A3I, with 3.27 kcal/mol; and A3R, with 3.23 kcal/mol.
Still for that read-out and setting: then A3Y, with 2.81 kcal/mol; and A3N, with 3.25 kcal/mol.
On to E7Q, for which the “folding stability dG” value was 2.96 kcal/mol.
Same read-out and setting: to E7T belongs 2.53 kcal/mol.
For the variant E7R, the “folding stability dG” value was found to be 2.85 kcal/mol.
Same read-out and setting: then G63Q, with 3.47 kcal/mol; and G63V, with 3.42 kcal/mol.
As to G63C, the “folding stability dG” value worked out at 3.58 kcal/mol.
Still for that read-out and setting: then G63F, with 3.29 kcal/mol; and Y46G, with 3.44 kcal/mol; and Y46C, with 3.46 kcal/mol.
The same measure, in the same setting: then Y46S, with 3.52 kcal/mol.
On the same count and under the same terms, then Y46L, with 3.44 kcal/mol; and Y46N, with 3.57 kcal/mol; and Y46F, with 3.55 kcal/mol.
Turning to E40G, the “folding stability dG” value was 4.01 kcal/mol.
As for E40C, the “folding stability dG” value was 3.85 kcal/mol.
Same read-out and setting: to E40I belongs 3.91 kcal/mol.
On the same count and under the same terms, then E40R, with 3.96 kcal/mol.
Still for that read-out and setting: then V28F, with 2.86 kcal/mol.
With V28K, the “folding stability dG” value came out at 2.47 kcal/mol.
With V28A, the “folding stability dG” value came out at 2.63 kcal/mol.
On the same count and under the same terms, then V28Q, with 2.25 kcal/mol; and V28W, with 2.77 kcal/mol.
Still for that read-out and setting: then V28S, with 2.18 kcal/mol; and Y19F, with 3.66 kcal/mol.
The same measure, in the same setting: to Y19N belongs 2.75 kcal/mol; to Y19S, 2.9 kcal/mol.
Take Y19T: the “folding stability dG” value was determined as 3.29 kcal/mol.
Still for that read-out and setting: to Y19I belongs 3.21 kcal/mol.
As to Y19K, the “folding stability dG” value came to 3.07 kcal/mol.
The same measure, in the same setting: then R26K, with 3.37 kcal/mol.
For R26F, the “folding stability dG” value was 3.31 kcal/mol.
